Two substances from article PMC3946673 can be followed below.

In this assay the target is human lactoferrin from milk (human). The assay can be described thus: SPR; lactoferrin immobilised by amine coupling on Sensor Chip CM3 (around 1000 RU); EndoE variants injected at typically 31-500 nM, 15 µl/min, 25°C, 10 mM Hepes pH 7.5, 150 mM NaCl, 0.005% surfactant P20; BIAcore 2000; 1:1 Langmuir fit, KD from mean values of the rate constants. (In general: SPR reads the build-up and loss of mass on a sensor chip optically.)

pKd: −log10 of the molar value.

Take “EndoE(E662Q) (from UniProt Q6U890 1-837) (enzyme)”: the negative logarithm of the Kd (pKd) was 8.43.

For the substance “EndoE(E186Q) (from UniProt Q6U890 1-837) (enzyme)”, the pKd was 7.36. Compared with the last substance, the pKd is 1.07 log units lower.

In general, pKd refers to the Kd on a negative log10 scale, so that one unit is a factor of ten. Read a low pKd as a high Kd.
